Several values for one entry are separate records, joined by “and”; a condition that tells them apart may be missing. Equal values may be shown once.
Molecular target: human neonatal Fc receptor (FcRn), His-tagged (human) (UniProt P55899)
Assay: BLI

Sequence of UniProt P55899 (P55899 24-297, chain 1 of 2): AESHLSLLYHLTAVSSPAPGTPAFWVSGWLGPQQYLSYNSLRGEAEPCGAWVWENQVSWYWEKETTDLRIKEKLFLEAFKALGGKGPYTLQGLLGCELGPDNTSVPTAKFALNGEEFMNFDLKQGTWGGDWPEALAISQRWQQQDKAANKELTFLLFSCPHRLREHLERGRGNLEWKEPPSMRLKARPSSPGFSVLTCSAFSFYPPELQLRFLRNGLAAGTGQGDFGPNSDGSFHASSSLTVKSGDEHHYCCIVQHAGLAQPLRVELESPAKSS
Sequence of UniProt P55899 (P61769 21-119, chain 2 of 2, further chain): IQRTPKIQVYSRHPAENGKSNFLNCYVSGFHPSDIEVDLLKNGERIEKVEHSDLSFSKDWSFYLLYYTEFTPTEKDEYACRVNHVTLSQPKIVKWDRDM

Row | Substance | Kd
1 | RGB-19 tocilizumab (proposed biosimilar, IV and SC drug products) (antibody) | 26.5 to 30.4 nM and 26.3 to 31.7 nM
2 | RoActemra^® tocilizumab (EU-sourced reference medicinal product, IV and SC) (antibody) | 19.2 to 34.5 nM and 17.6 to 35.4 nM

From publication PMC12354568
